Here are results for 39 molecules from patent US20190263899A1 (Novartis, published 2019).

Assay [1] addresses T1, C-terminally 3×FLAG-1×HA-tagged mouse MINION (Mus musculus) (UniProt Q2Q5T5).
T1 sequence: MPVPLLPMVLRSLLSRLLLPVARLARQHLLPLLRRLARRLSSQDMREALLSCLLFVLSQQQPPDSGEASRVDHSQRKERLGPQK
The assay can be described thus: AP-MS, FLAG-tagged Minion bait, differentiating C2C12 myoblasts.

Another assay deals with T2, Gapdh (mouse, UniProt P16858 1-333).
T2 construct: also called glyceraldehyde-3-phosphate dehydrogenase
T2 sequence (P16858 whole entry): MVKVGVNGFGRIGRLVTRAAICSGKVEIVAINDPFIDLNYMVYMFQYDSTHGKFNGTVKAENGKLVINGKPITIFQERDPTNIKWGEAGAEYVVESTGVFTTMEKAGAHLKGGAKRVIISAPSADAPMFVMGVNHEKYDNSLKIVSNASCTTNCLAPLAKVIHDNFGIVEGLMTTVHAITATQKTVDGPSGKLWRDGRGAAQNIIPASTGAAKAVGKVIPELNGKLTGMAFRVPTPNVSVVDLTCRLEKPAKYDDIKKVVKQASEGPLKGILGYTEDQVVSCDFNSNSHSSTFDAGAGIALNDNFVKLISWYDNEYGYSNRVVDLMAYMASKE
Nature of the assay: Western blot of the FLAG-tagged Minion affinity purification. For orientation: A western blot detects proteins with antibodies after separation by electrophoresis.

Take “Nascent polypeptide-associated complex subunit alpha, muscle-specific form (from UniProt P70670 1-2187)”: in assay [1], the Sequence Coverage (%) is 18% and the Unique Peptide is 23.

With “Vacuolar protein sorting-associated protein 45 (from UniProt P97390 1-570)”, in assay [1], the Sequence Coverage (%) worked out at 15% and the Unique Peptide turned out to be 7.

As for T-complex protein 1 subunit alpha, in assay [1], the Sequence Coverage (%) stood at 52% and the Unique Peptide was 20.

In assay [1], Syntaxin-8 (from UniProt O88983 1-236) showed a Sequence Coverage (%) of 19% and a Unique Peptide of 4.

In assay [1], “Acetolactate synthase-like protein (from UniProt Q8BU33 1-632) (enzyme)” came in with a Sequence Coverage (%) of 32% and a Unique Peptide of 10.

Consider “ATPase family AAA domain-containing protein 1 (from UniProt Q9D5T0 1-361) (enzyme)”, for which, in assay [1], the Sequence Coverage (%) is 30% and the Unique Peptide was 7.

In the case of “Trifunctional enzyme subunit alpha, mitochondrial (from UniProt Q8BMS1 37-763)”, in assay [1], the Sequence Coverage (%) was 66% and the Unique Peptide was determined as 33.

In assay [1], “Apolipoprotein O-like (from UniProt Q78IK4 28-265)” returned a Sequence Coverage (%) of 49% and a Unique Peptide of 9.

“DnaJ homolog subfamily C member 16 (from UniProt Q80TN4 26-772)”: in assay [1], the Sequence Coverage (%) turned out to be 19% and the Unique Peptide turned out to be 9.

Consider “NADH dehydrogenase [ubiquinone] 1 alpha subcomplex subunit 10, mitochondrial (from UniProt Q99LC3 36-355) (enzyme)”, for which, in assay [1], the Sequence Coverage (%) came out at 24% and the Unique Peptide came to 7.

In assay [1], “Cytochrome b-c1 complex subunit 1, mitochondrial (from UniProt Q9CZ13 35-480)” returned a Sequence Coverage (%) of 41% and a Unique Peptide of 13.

In assay [1], “Very long-chain specific acyl-CoA dehydrogenase, mitochondrial (from UniProt P50544 42-656) (enzyme)” returned a Sequence Coverage (%) of 57% and a Unique Peptide of 26.

In assay [1], “Adenylate kinase isoenzyme 4, mitochondrial (from UniProt Q9WUR9 1-223)” gave a Sequence Coverage (%) of 52% and a Unique Peptide of 6.

Regarding “Sorbin and SH3 domain-containing protein 2 (from UniProt Q3UTJ2 1-1180)”, in assay [1], the Sequence Coverage (%) is 7% and the Unique Peptide was found to be 6.

With “NADH-ubiquinone oxidoreductase 75 kDa subunit, mitochondrial (from UniProt Q91VD9 24-727) (enzyme)”, in assay [1], the Sequence Coverage (%) turned out to be 20% and the Unique Peptide came out at 9.

In assay [1], “Voltage-dependent anion-selective channel protein 1 (from UniProt Q60932 1-296)” came in with a Sequence Coverage (%) of 15% and a Unique Peptide of 10.

In assay [1], “NADH dehydrogenase [ubiquinone] flavoprotein 1, mitochondrial (from UniProt Q91YT0 21-464) (enzyme)” came in with a Sequence Coverage (%) of 24% and a Unique Peptide of 7.

Turning to “B-cell receptor-associated protein 31 (from UniProt Q61335 2-245)”, in assay [1], the Sequence Coverage (%) was 27% and the Unique Peptide was 7.

In assay [1], “Isovaleryl-CoA dehydrogenase, mitochondrial (from UniProt Q9JHI5 31-424) (enzyme)” had a Sequence Coverage (%) of 49% and a Unique Peptide of 16.

In assay [1], “Cytoskeleton-associated protein 5 (from UniProt A2AGT5 1-2032)” gave a Sequence Coverage (%) of 8% and a Unique Peptide of 13.

In assay [1], Dysferlin (from UniProt Q9ESD7 1-2090) returned a Sequence Coverage (%) of 13% and a Unique Peptide of 17.

In assay [1], “T-complex protein 1 subunit beta (from UniProt P80314 2-535)” gave a Sequence Coverage (%) of 55% and a Unique Peptide of 20.

As to “ATP synthase subunit beta, mitochondrial (from UniProt P56480 47-529) (enzyme)”, in assay [1], the Sequence Coverage (%) is 77% and the Unique Peptide amounted to 26.

In the case of “Cluster of Myc box-dependent-interacting protein 1 (from UniProt O08539 2-588)”, in assay [1], the Sequence Coverage (%) is 42% and the Unique Peptide is 16.

In assay [1], “Calcium uniporter protein, mitochondrial (from UniProt Q3UMR5 50-350)” showed a Sequence Coverage (%) of 38% and a Unique Peptide of 12.

In assay [1], “Cluster of Guanine nucleotide-binding protein G(s) subunit alpha isoforms short” returned a Sequence Coverage (%) of 34% and a Unique Peptide of 9.

In assay [1], “Inositol 1,4,5-trisphosphate receptor type 3 (from UniProt P70227 1-2670)” showed a Sequence Coverage (%) of 6% and a Unique Peptide of 11.

With “Signal recognition particle 68 kDa protein (from UniProt Q8BMA6 1-625)”, in assay [1], the Sequence Coverage (%) was determined as 25% and the Unique Peptide worked out at 11.

In assay [1], “T-complex protein 1 subunit theta (from UniProt P42932 2-548)” showed a Sequence Coverage (%) of 48% and a Unique Peptide of 22.

For the molecule “Junctional sarcoplasmic reticulum protein 1 (from UniProt Q3MI48 1-332)”, in assay [1], the Sequence Coverage (%) amounted to 53% and the Unique Peptide came out at 8.

As for “Trifunctional enzyme subunit beta, mitochondrial (from UniProt Q99JY0 35-475)”, in assay [1], the Sequence Coverage (%) worked out at 68% and the Unique Peptide was found to be 22.

Regarding “Calsequestrin-2 (from UniProt O09161 20-415)”, in assay [1], the Sequence Coverage (%) is 24% and the Unique Peptide is 9.

In assay [1], “Tripartite motif-containing protein 72 (from UniProt Q1XH17 1-477)” returned a Sequence Coverage (%) of 55% and a Unique Peptide of 16.

In assay [1], “Cytoplasmic dynein 1 heavy chain 1 (from UniProt Q9JHU4 2-4644)” showed a Sequence Coverage (%) of 46% and a Unique Peptide of 157.

In assay [1], “Eukaryotic initiation factor 4A-II (from UniProt P10630 1-407)” gave a Sequence Coverage (%) of 53% and a Unique Peptide of 9.

For “Coproporphyrinogen-III oxidase, mitochondrial (from UniProt P36552 99-443) (enzyme)”, in assay [1], the Sequence Coverage (%) amounted to 52% and the Unique Peptide stood at 19.

In assay [1], “Aldehyde dehydrogenase family 3 member B1 (from UniProt Q80VQ0 1-465) (enzyme)” yielded a Sequence Coverage (%) of 46% and a Unique Peptide of 15.

B1: C-terminally 3×FLAG-1×HA-tagged mouse MINION (other)
chain: MPVPLLPMVLRSLLSRLLLPVARLARQHLLPLLRRLARRLSSQDMREALLSCLLFVLSQQQPPDSGEASRVDHSQRKERLGPQK
notes: Construct of the mouse MINION CDS (84 aa isoform) expressed from the pCIGAR retroviral vector; The AP-MS text only says 'FLAG-tagged Minion'; also called FLAG-tagged Minion; 3F1H-tagged mouse MINION; not shown: C-terminal 3×FLAG-1×HA tag
In the case of B1, in the assay with Gapdh, the binding result is listed as “no binding”.

B2: Synaptopodin 2-like protein (protein, UniProt Q8BWB1 1-975, looked up)
Synaptopodin 2-like protein: MGAEEEVQVTLAGGAPWGFRLQGGTEQRKPLQIRRRSQAGRAGLRERDQLLAINGVSCTNFSHASAMTLIDASGRQLVLTVRRVTDEGSVRSPSPGELQVLSPLSPLSPEPPGAPVSQALQPTSLRSPPDSEAYYGETDSDVDGPATQEKPRRTRRRGPARPSLPGAPPDEVYLSDSPAEPAPVKTGSPSQGDSRVSSPSWEEGAALQPPPAEALLLPHGPLRPGPHLIPMVGPVPHPVAEDLTTTYTQKAKQAKLQRAESLQEKSVKEARTKCRTIASLLTAAPNPHSKGVLMFKKRRQRAKKYTLVSFGAAAGTGTEEEDGIPPTSESELDEETFSDARSLTNQSDWDSPYLDMELARAGLGTAESQNSGLGGQLSEVSGRGVQLFEQQRQRVASSSQELAQVGPAAMLNGQSLQSPPRAQSAPPEAAVLPLSPLSVPAVSPTPFFPDGGAPIPAPSIFNRSARPFTPGLQGQRSGTTSVIFRPLAPKKVNEGLGSTSPAPSPFAAPPQGPTPLPSFTTVVPSHTPVSGASSSTQRSSGPVTATSSLYIPAPSRPVTPGGAPEPPTPPSAAAMTSTASIFLSTPLRNSARPEAPGPAVPEPASVREQRISVPAARTGILQEARRRGTRKQMFRPGKEETKNSPNPELLSLVQNLDEKPRAGGAESGPEEDALSLGAEACNFMQPLGGRSYKTLPQVSPKTPPPMAPKTPPPTTPKTPPPVAPKPGSRGLLDGLVNGSTPMVGIPEPPRLQGRGGELFAKRQSRADRYVVEATSGSSLNPGLRPRSPSPTPSLPPSWKYSPNIRAPPPIAYNPLLSPFFPQAARTLPNKAQSQGPRVTPKQGIKALDFMRHQPYQLKTAMFCFDEGSSTPGPTSGPPKTARVQEIRRFSTPAPQPTAEPLAPTVLVPRAATTLDEPIWRAELASTPVPNPDHQESLRSFAAAPSSCGFQVARPRFSATRTGLQAHVWRPGAGHQ
As to B2, in assay [1], the Sequence Coverage (%) was 8% and the Unique Peptide came out at 5.
